According to patent publication US10919943B2, “Mutant proteins enabling agrochemical control of plant gene expression” (The Regents of the University of California, priority 2016, dated 2021):
Numbering of substitutions follows the chain as printed. Names may count otherwise.

T1: PYR1 (Arabidopsis thaliana, UniProt O49686)
T1 construct: expressed in transfected cells; host or cells: S. cerevisiae strain Y190
T1 sequence (O49686 1-191): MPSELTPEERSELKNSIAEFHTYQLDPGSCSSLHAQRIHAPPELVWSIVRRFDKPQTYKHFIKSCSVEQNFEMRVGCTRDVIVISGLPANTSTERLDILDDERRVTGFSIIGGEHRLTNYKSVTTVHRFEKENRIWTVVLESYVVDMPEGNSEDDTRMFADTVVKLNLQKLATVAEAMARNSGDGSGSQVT

B1: V393Q: HAB1 mutant (protein, listed as Arabidopsis thaliana)
chain: MEEMTPAVAMTLSLAANTMCESSPVEITQLKNVTDAADLLSDSENQSFCNGGTECTMEDVSELEEVGEQDLLKTLSDTRSGSSNVFDEDDVLSVVEDNSAVISEGLLVVDAGSELSLSNTAMEIDNGRVLATAIIVGESSIEQVPTAEVLIAGVNQDTNTSEVVIRLPDENSNHLVKGRSVYELDCIPLWGTVSIQGNRSEMEDAFAVSPHFLKLPIKMLMGDHEGMSPSLTHLTGHFFGVYDGHGGHKVADYCRDRLHFALAEEIERIKDELCKRNTGEGRQVQWDKVFTSCFLTVDGEIEGKIGRAVVGSSDKVLEAVASETVGSTAVVALVCSSHIVVSNCGDSRAVLFRGKEAMPLSVDHKPDREDEYARIENAGGKVIQWQGARVFGQLAMSRSIGDRYLKPYVIPEPEVTFMPRSREDECLILASDGLWDVMNNQEVCEIARRRILMWHKKNGAPPLAERGKGIDPACQAAADYLSMLALQKGSKDNISIIVIDLKAQRKFKTRT
B2: V393K: HAB1 mutant (protein, listed as Arabidopsis thaliana)
chain: B1 chain with Q393K
B3: V393R: HAB1 mutant V393R, denoted HAB1^! (protein, listed as Arabidopsis thaliana)
chain: B1 chain with Q393R
B4: F391E: HAB1 mutant (protein, UniProt Q9CAJ0 23-511, looked up, variant F391E)
Protein phosphatase 2C 16: SPVEITQLKNVTDAADLLSDSENQSFCNGGTECTMEDVSELEEVGEQDLLKTLSDTRSGSSNVFDEDDVLSVVEDNSAVISEGLLVVDAGSELSLSNTAMEIDNGRVLATAIIVGESSIEQVPTAEVLIAGVNQDTNTSEVVIRLPDENSNHLVKGRSVYELDCIPLWGTVSIQGNRSEMEDAFAVSPHFLKLPIKMLMGDHEGMSPSLTHLTGHFFGVYDGHGGHKVADYCRDRLHFALAEEIERIKDELCKRNTGEGRQVQWDKVFTSCFLTVDGEIEGKIGRAVVGSSDKVLEAVASETVGSTAVVALVCSSHIVVSNCGDSRAVLFRGKEAMPLSVDHKPDREDEYARIENAGGKVIQWQGARVEGVLAMSRSIGDRYLKPYVIPEPEVTFMPRSREDECLILASDGLWDVMNNQEVCEIARRRILMWHKKNGAPPLAERGKGIDPACQAAADYLSMLALQKGSKDNISIIVIDLKAQRKFKTRT
B5: Y404E: HAB1 mutant (protein, UniProt Q9CAJ0 23-511, looked up, variant Y404E)
Protein phosphatase 2C 16: B4 Protein phosphatase 2C 16 with E369F, Y382E
B6: G392V: HAB1 mutant (protein, UniProt Q9CAJ0 23-511, looked up, variant G392V)
Protein phosphatase 2C 16: B4 Protein phosphatase 2C 16 with E369F, G370V
B7: G392E: HAB1 mutant (protein, UniProt Q9CAJ0 23-511, looked up, variant G392E)
Protein phosphatase 2C 16: B4 Protein phosphatase 2C 16 with E369F, G370E
B8: G392N: HAB1 mutant (protein, UniProt Q9CAJ0 23-511, looked up, variant G392N)
Protein phosphatase 2C 16: B4 Protein phosphatase 2C 16 with E369F, G370N
B9: G392H: HAB1 mutant (protein, UniProt Q9CAJ0 23-511, looked up, variant G392H)
Protein phosphatase 2C 16: B4 Protein phosphatase 2C 16 with E369F, G370H
B10: Y404P: HAB1 mutant (protein, UniProt Q9CAJ0 23-511, looked up, variant Y404P)
Protein phosphatase 2C 16: B4 Protein phosphatase 2C 16 with E369F, Y382P
B11: G392Y: HAB1 mutant (protein, UniProt Q9CAJ0 23-511, looked up, variant G392Y)
Protein phosphatase 2C 16: B4 Protein phosphatase 2C 16 with E369F, G370Y
B12: E201K: HAB1 mutant (protein, UniProt Q9CAJ0 23-511, looked up, variant E201K)
Protein phosphatase 2C 16: B4 Protein phosphatase 2C 16 with E179K, E369F
B13: Y404T: HAB1 mutant (protein, UniProt Q9CAJ0 23-511, looked up, variant Y404T)
Protein phosphatase 2C 16: B4 Protein phosphatase 2C 16 with E369F, Y382T
B14: G392P: HAB1 mutant (protein, UniProt Q9CAJ0 23-511, looked up, variant G392P)
Protein phosphatase 2C 16: B4 Protein phosphatase 2C 16 with E369F, G370P
B15: G392R: HAB1 mutant (protein, UniProt Q9CAJ0 23-511, looked up, variant G392R)
Protein phosphatase 2C 16: B4 Protein phosphatase 2C 16 with E369F, G370R
B16: Y404Q: HAB1 mutant (protein, UniProt Q9CAJ0 23-511, looked up, variant Y404Q)
Protein phosphatase 2C 16: B4 Protein phosphatase 2C 16 with E369F, Y382Q
B17: G392Q: HAB1 mutant (protein, UniProt Q9CAJ0 23-511, looked up, variant G392Q)
Protein phosphatase 2C 16: B4 Protein phosphatase 2C 16 with E369F, G370Q
B18: G392D: HAB1 mutant (protein, UniProt Q9CAJ0 23-511, looked up, variant G392D)
Protein phosphatase 2C 16: B4 Protein phosphatase 2C 16 with E369F, G370D
B19: G392I: HAB1 mutant (protein, UniProt Q9CAJ0 23-511, looked up, variant G392I)
Protein phosphatase 2C 16: B4 Protein phosphatase 2C 16 with E369F, G370I
B20: Y404D: HAB1 mutant (protein, UniProt Q9CAJ0 23-511, looked up, variant Y404D)
Protein phosphatase 2C 16: B4 Protein phosphatase 2C 16 with E369F, Y382D
B21: G392C: HAB1 mutant (protein, UniProt Q9CAJ0 23-511, looked up, variant G392C)
Protein phosphatase 2C 16: B4 Protein phosphatase 2C 16 with E369F, G370C
B22: Y404S: HAB1 mutant (protein, UniProt Q9CAJ0 23-511, looked up, variant Y404S)
Protein phosphatase 2C 16: B4 Protein phosphatase 2C 16 with E369F, Y382S
B23: E201H: HAB1 mutant (protein, UniProt Q9CAJ0 23-511, looked up, variant E201H)
Protein phosphatase 2C 16: B4 Protein phosphatase 2C 16 with E179H, E369F
B24: Y404R: HAB1 mutant (protein, UniProt Q9CAJ0 23-511, looked up, variant Y404R)
Protein phosphatase 2C 16: B4 Protein phosphatase 2C 16 with E369F, Y382R
B25: G392A: HAB1 mutant (protein, UniProt Q9CAJ0 23-511, looked up, variant G392A)
Protein phosphatase 2C 16: B4 Protein phosphatase 2C 16 with E369F, G370A
B26: G392W: HAB1 mutant (protein, UniProt Q9CAJ0 23-511, looked up, variant G392W)
Protein phosphatase 2C 16: B4 Protein phosphatase 2C 16 with E369F, G370W
B27: G392F: HAB1 mutant (protein, UniProt Q9CAJ0 23-511, looked up, variant G392F)
Protein phosphatase 2C 16: B4 Protein phosphatase 2C 16 with E369F, G370F
B28: G392K: HAB1 mutant (protein, UniProt Q9CAJ0 23-511, looked up, variant G392K)
Protein phosphatase 2C 16: B4 Protein phosphatase 2C 16 with E369F, G370K
B29: Y404K: HAB1 mutant (protein, UniProt Q9CAJ0 23-511, looked up, variant Y404K)
Protein phosphatase 2C 16: B4 Protein phosphatase 2C 16 with E369F, Y382K
B30: Y404G: HAB1 mutant (protein, UniProt Q9CAJ0 23-511, looked up, variant Y404G)
Protein phosphatase 2C 16: B4 Protein phosphatase 2C 16 with E369F, Y382G
B31: G392T: HAB1 mutant (protein, UniProt Q9CAJ0 23-511, looked up, variant G392T)
Protein phosphatase 2C 16: B4 Protein phosphatase 2C 16 with E369F, G370T
B32: Y404N: HAB1 mutant (protein, UniProt Q9CAJ0 23-511, looked up, variant Y404N)
Protein phosphatase 2C 16: B4 Protein phosphatase 2C 16 with E369F, Y382N
B33: G392L: HAB1 mutant (protein, UniProt Q9CAJ0 23-511, looked up, variant G392L)
Protein phosphatase 2C 16: B4 Protein phosphatase 2C 16 with E369F, G370L
B34: G392M: HAB1 mutant (protein, UniProt Q9CAJ0 23-511, looked up, variant G392M)
Protein phosphatase 2C 16: B4 Protein phosphatase 2C 16 with E369F, G370M

Molecular target: T1, PYR1
Assay: Yeast two hybrid of pACT-HAB1 site saturation mutants with pBD-PYR1 on 10 μM ABA, β-galactosidase staining
Format: cell-based
Design: key: x: Mutations in HAB1 that disrupt HAB1 interaction with PYR1
Conditions: S. cerevisiae Y190, 10 μM ABA; dead = lack of detectable staining in comparison to wild type control
How it was run: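 Read-out is β-galactosidase staining of chloroform-lysed Y190 colonies grown 2 days at 30 °C on SD (-Leu,-Trp) plus 10 μM ABA. Each pACT-HAB1 single-substitution mutant (N-terminally truncated by three residues) was paired with pBD-PYR1; absence of detectable staining relative to wild type scored as dead.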

| Molecule | Mutations in HAB1 that disrupt HAB1 interaction with PYR1 |
| --- | --- |
| B1 | x |
| B2 | x |
| B3 | x |
| B4 | x |
| B5 | x |
| B6 | x |
| B7 | x |
| B8 | x |
| B9 | x |
| B10 | x |
| B11 | x |
| B12 | x |
| B13 | x |
| B14 | x |
| B15 | x |
| B16 | x |
| B17 | x |

| Molecule | Mutations in HAB1 that disrupt HAB1 interaction with PYR1 |
| --- | --- |
| B18 | x |
| B19 | x |
| B20 | x |
| B21 | x |
| B22 | x |
| B23 | x |
| B24 | x |
| B25 | x |
| B26 | x |
| B27 | x |
| B28 | x |
| B29 | x |
| B30 | x |
| B31 | x |
| B32 | x |
| B33 | x |
| B34 | x |
